The source of these data is patent publication US20110091467A1 (CENTRE FOR ADDICTION AND MENTAL HEALTH, published 2011).

To fix the notation:
B1: [35S]-methionine-labelled D2[IL3-2] probe (peptide)
chain: EAARRAQELEMEMLSSTSPPERTRYSPIPPSHHQLTLPDPSHHGLHSTPDSPAKPEKNGHAKDHPKIAKIFEIQTMPNGKTRTSLKTMSRRKLSQQKEKKATQ
modifications: [35S]-methionine-labelled
notes: also called [35S]-D2[IL3-2]

The target in experiment [1] is B1. As to the kind of experiment: conclusion from the peptide competition in the in vitro binding assay (GST-DAT[NT1] with [35S]-D2[IL3-2]).
Procedure: (§1) The beads were then washed 4-6 times with PBS containing 0.5% Triton X-100 and eluted with 10 mM glutathione elution buffer. Eluates were separated by SDS-PAGE and visualized by autoradiography.
In experiment [2] the target is T1, GST fused DAT[NT1] (M1-P26) (UniProt P08515 1-218 = GST).
T1 construct: also called GST-DAT[NT1]
In words: in vitro binding assay, FIG. 1G.
Procedure: as §1

Experiment [3] deals with T2, GST fused DAT[NT2] (A16-T43) (UniProt P08515 1-218 = GST).
T2 construct: also called GST-DAT[NT2]
In words: in vitro binding assay: GST fusion on glutathione beads with the [35S]-D2[IL3-2] probe, autoradiography.
Procedure: as §1

The target in experiment [4] is T3, GST fused DAT[NT3] (K35-D68) (UniProt P08515 1-218 = GST).
T3 construct: also called GST-DAT[NT3]
The experiment is described as above.
Procedure: as §1

T2 sequence (P08515 1-218, tags or fused parts left off): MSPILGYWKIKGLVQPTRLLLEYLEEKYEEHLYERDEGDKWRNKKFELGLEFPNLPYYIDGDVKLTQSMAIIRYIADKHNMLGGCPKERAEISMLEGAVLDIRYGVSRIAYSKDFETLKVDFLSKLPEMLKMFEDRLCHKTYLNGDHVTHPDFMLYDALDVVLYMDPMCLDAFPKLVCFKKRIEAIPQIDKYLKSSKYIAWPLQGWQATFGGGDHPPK
T3 sequence (P08515 1-218, tags or fused parts left off): as above
T1 sequence (P08515 1-218, tags or fused parts left off): as above

For the molecule MSKSKCSVGLMSSVV (also called DAT[NT1-1] peptide) [purified DAT[NT1-1] (M1-V15) peptide], the binding result in experiment [1] is given as “binds”.

Take B1: the binding result in experiment [2] was “binds”; in experiment [3] it was “no binding”; in experiment [4] it was “no binding”.
